# Experimental data from patent publication CN111138527A (INST MILITARY MEDICINE ACADEMY MILITARY SCIENCES PLA, dated 2020).
# B1: 抗埃博拉病毒糖蛋白GP1亚基的单克隆抗体4F1 (antibody, V domains shown)
# VH: EVQLVESGGGLVQPGGSLRLSCAASGFSFRIYDMHWVRQVTGRGLEWVSAIGSASDTYYRDSVKGRFTISRENAKNSLYLQMNSLRAGDTAVYYCARASFGELMFDLWGQGTLVTVSS
# VL: DIQMTQSPSSLSLSPGERATLSCRASQSVGSSLAWYQQKPGQAPRLLIYAASSRATGFPDRFSGSGSGTDFTLTISRLEPEDFAVYYCQQYGGSPLTFGGGTKVEIKT
# Biological target: 截短型抗原蛋白GPdM (Ebola virus (EBOV), UniProt Q05320 33-632)
# Assay: ELISA on coated truncated GP
binder,measurement,value
B1,EC50,6.9 ng/mL
